Test results published in PMC5428233, “Cross-beta nanostructures based on dinaphthylalanine Gd-conjugates loaded with doxorubicin” (Scientific Reports, 2017).
Where a SMILES comes first, the peptide text is derived from it. [ ]: non-standard residue; d: D form. The star is where a group is joined. DOTA = O=C(O)CN1CCN(CC(=O)O)CCN(CC(=O)*)CCN(CC(=O)O)CC1; 2Nal = N[C@@H](Cc1ccc2ccccc2c1)C(=O)O; PEG6 = NCCOCCOCCOCCOCCOCCOCCC(=O)O

What was measured:
[1] = Transmission electron microscopy of self-assembled conjugates; type: physicochemical; settings: 5.0 mg/mL solution dried on grid, phosphotungstic acid stain
Procedure: Self-assembled peptide conjugate at 5.0 mg/mL, as free base or as metal complex, was initially characterized using TEM. […] The presence of a diffraction pattern both in SAXS and in WAXS is fingerprint of a hierarchical organization of the molecules in fibers from the atomic to the nanoscale.
TEM images were acquired by LaMest (Pozzuoli, Italy) with a FEI TECNAI G12 Spirit-Twin microscope (LaB6 source) endowed of a bottom mounted FEI Eagle-4k CCD camera (Eindhoven, The Netherlands), working at 120 kV.

[2] = water
[3] = Doxorubicin loading and leakage by fluorescence spectroscopy; type: physicochemical
Description: In order to prepare a potential theranostic agent, we assayed to incorporate cytotoxic doxorubicin (DOX) model drug in the Gd-2Nal2 paramagnetic nanostructures. DOX is an established anticancer agent clinically effective for the treatment of many cancertypes (breast and ovarian cancers). The incorporation and release of DOX into nanostructures was estimated by fluorescence spectroscopy (Figures S7 and S8). The addition of increasing amounts of the peptide conjugate to the DOX solution causes a progressive decrease of the fluorescence intensity of DOX (Figure S7a). […] By plotting the fluorescence intensity in the maximum at 590 nm as function of the Gd-2Nal2 concentration (Figure S7b) we estimated that gDrug/gPeptide is 0.028 (∼60 μg of DOX for ∼2.0 mg of peptide). […]
A DOX solution (1 · 10^−4 M) was placed in the cuvette and titrated with small amount of Gd-2Nal2 peptide conjugate at 50 mg/mL. The fluorescence of each sample was monitored on Jasco Model FP-750 spectroflurophotometer as above described. […] At the end of the titration the DOX filled Gd-2Nal2 aggregates were 10-fold diluted and the DOX fluorescence was monitored up to 72 h. […]
Figure S7: A) Fluorescence spectra of 1·10^-4 M DOX (58 μg/mL) solution alone and after the addition of growing amounts of Gd-2Nal2 peptide conjugate (from 0.25 to 10.0 mg/mL). […]

[4] = water, temperature below 5 °C
[5] = Self-aggregation by intrinsic naphthyl fluorescence (intensity decrease, excimer peak); type: physicochemical; settings: water, room temperature, excitation 280 nm
Procedure: (§1) Self-organization of the peptide conjugates at the atomic level was further characterized also in solution with fluorescence, UV-Vis, ^1HNMR, CD and FTIR spectroscopies. […] From ispection of Fig. 1b, the typical emission spectrum of the 2-naphthyl group with three maxima at 325, 340 and 355 nm, respectively, can be detected.
(§2) The determination of CAC (critical aggregate concentration) values was determined as previously described[6] by the titration of the fluorescent probe ANS (8-anilino-1-naphthalene sulfonic acid ammonium salt)[28], [29] with the peptide conjugates[30].

[6] = Congo Red spectroscopic (UV-Vis) assay for amyloid-like fibrils; type: physicochemical; settings: 30 min at room temperature
Procedure: The high tendency of Gd-2Nal2 to self-aggregate in amyloid-like fibrillary nanostructures in solution was confirmed by Congo Red (CR) staining assay. CR is a well-known azoic dye, used as indicator of the occurrence of amyloid like fibrils. […] When incubated with fibrillary aggregates, its spectral profile changes and a shift of the CR band from 490 to 540 nm is expected. In our experiment, depicted in Fig. 3b, CR UV-Vis maximum undergoes a clear shift after incubation with Gd-2Nal2 at 2.5 mg/mL. Instead, any variation or a slight shift can be evidenced for CR incubated with 0.1 and 1.0 mg/mL, respectively.
Congo Red (CR) UV-Vis assay was carried out on aforementioned spectrophotometer as previously described. Briefly, 5, 50 and 125 μL of di-naphthylalanine stock solution (20 mg/mL) were added to a CR solution (12, 5 μM) prepared immediately before to use. The solutions containing peptide conjugate incubated with CR were left at room temperature for 30 min and then their UV-Vis spectra were recorded between 400 and 700 nm. The spectrum of CR alone at the same concentration was also recorded in the this spectral region.

[7] = Water proton relaxation measurements / NMRD profiles; type: physicochemical; settings: 298 K
Description: The paramagnetic relaxivity (r1p) of Gd (III) complexes is given by:1 r1p∝1/T1MH=Kf(τR) where K is a constant related to the strength of the dipolar interaction between the protons and the electronic magnetic moment, and τR is the correlation time associated with the reorientation of the Gd-H magnetic vector. This means that slowly moving high molecular weight systems are endowed with higher relaxivity than rapidly reorienting low molecular weight ones. In the case of self assembling Gd-containing systems, the extent of aggregation may be evaluated through the measure of the water proton longitudinal relaxation rate of its aqueous solution. In Fig. 8 are reported the NMRD (Nuclear Magnetic Resonance Dispersion) profiles of Gd-2Nal2 acquired at 21.5 MHz (0.5 T) and 298 K as a function of the complex concentration. […] At concentrations higher than 10–15 mg/mL the relaxivity assumes an almost stable value which corresponds to the system in the completely aggregated form. By analyzing the profile of the relaxivity data as a function of the applied field strength (NMRD - Nuclear Magnetic Relaxation Dispersion) it is possible to obtain an accurate determination of the reorientational correlation time (τR)[16], that is strictly related to the molecular size of the investigated system. NMRD profiles were acquired below (black circles) and above (white ones) the CAC values determined by ANS titration and ^1HNMR. […] Data were analyzed using the Solomon-Bloembergen-Morgan model, [18], considering one water molecule in the inner coordination sphere (q = 1) and fixing the exchange lifetime (τM) to a reliable value ([…]) on the basis of those previously reported for mono-amido DOTA derivatives[19]–[22]. The quantitative analysis of the NMRD profile of the aggregated form was not satisfactory when the simple inner- outer-sphere model was used, so the Lipari-Szabo approach was used for the description of the rotational dynamics. This model allows one to take into account the presence ofa certain degree of internal rotation superimposed on the overall tumbling motion, [24]. These two types ofmotion, a relatively fast local rotation of the coordination cage about the linker to the peptide scaffold superimposed on the global reorientation of the system, are characterized by different correlation times: τR ^l and τR ^g, respectively. The degree of correlation between global and local rotations is given by the parameter S^2, which takes values between 0 (completely independent motions) and 1 (entirely correlated motions).
Measure of R1 (longitudinal water proton relaxation rates) of Gd-2Nal2 were carried out on a Stelar Spinmaster spectrometer (Pavia, Italy) operating at 0.5 T which corresponds to 21.5 MHz Proton Larmor Frequency. R1 (1/T1) values were measured at 298 K by mean of the standard inversion-recovery technique. For the measure of the proton 1/T1 NMRD (Nuclear Magnetic Resonance Dispersion) profiles, a fast field-cycling Stelar relaxometer, operating over a continuum of magnetic field strengths from 0.00024 to 0.47 T (corresponding to 0.01–20 MHz proton Larmor frequencies) was used. The temperature was set at 298 K. The relaxometer is computer controlled and the absolute uncertainty is 1/T1 ± 1%. Additional data points were obtained on a Stelar Spinmaster spectrometer coupled to an electromagnet tunable at different Larmor Frequencies between 21.5 and 70 MHz. Experimental temperature control was obtained with an air-flow heater (Stelar VTC-91) endowed of a copper constantan thermocouple (uncertainty 0.1 °C). A previously reported relaxometric method[39] was used for the determination of the concentrations of the solutions used for the relaxometric characterization. The conventional Solomon-Bloembergen-Morgan theory was used for fitting of experimental data.

[8] = Critical aggregation concentration (CAC) by ANS fluorescence titration; type: physicochemical; settings: ANS 20 μM titrated with conjugate, emission at 470 nm, graphical break-point (Figure S3)
Procedure: as §1, §2

NC(=O)[C@H](Cc1ccc2ccccc2c1)NC(=O)[C@H](Cc1ccc2ccccc2c1)NC(=O)CCOCCOCCOCCOCCOCCOCCNC(=O)CN1CCN(CC(=O)O)CCN(CC(=O)O)CCN(CC(=O)O)CC1 [Gd-2Nal2, Gd-DOTA-L6-(2Nal)2] ({DOTA-PEG6}-[2Nal]-[2Nal]-NH2)
supramolecular aggregation / morphology in TEM images [1]: long fibrillary nanostructures | solubility [2]: ≥ 50 mg/mL | doxorubicin loading, gDrug/gPeptide ([3]; DOX 1·10^−4 M titrated with Gd-2Nal2 (50 mg/mL stock), fluorescence at 590 nm, excitation 480 nm): 0.028 | DOX leakage (drug released) from the peptide aggregate ([3]; DOX filled aggregates 10-fold diluted, fluorescence monitored, after 72 h): ~6% | concentration at which fast hydrogel formation occurs [4]: 20000 µg/mL | concentration at which self-aggregation begins (decrease of fluorescence intensity) [5]: ~75 µM | concentration of appearance of the excimer peak (380-430 nm) / formation of stable aggregates [5]: ~1000 µg/mL | concentration at which self-aggregation begins (decrease of fluorescence intensity) ([5]; 0.025-20.0 mg/mL range): ~100 µg/mL | shift of Congo Red UV-Vis maximum (490 to 540 nm expected for fibrils) ([6]; conjugate at 1.0 mg/mL): slight shift | shift of Congo Red UV-Vis maximum (490 to 540 nm expected for fibrils) ([6]; conjugate at 2.5 mg/mL): clear shift | aggregation state from NMRD profile and τR ([7]; 1 mg/mL): monomeric state | aggregation state from NMRD profile and τR ([7]; 25.0 mg/mL (high concentration)): formation of aggregates | concentration above which relaxivity assumes an almost stable value (completely aggregated form) ([7]; 21.5 MHz (0.5 T), water): 10000 to 15000 µg/mL | concentration at which self-aggregation starts (enhancement in relaxivity) ([7]; 21.5 MHz (0.5 T), water): ca. 1.0 mg/mL | r1p (longitudinal proton relaxivity) ([7]; complex at 1 mg/mL, aqueous solution): 7.3 mM⁻¹ s⁻¹ | critical aggregation concentration (CAC) [8]: ~0.86 mg/mL
